In PMC3353895, “Crystal Structure of a Complex of DNA with One AT-Hook of HMGA1”:

Target: T1, HMGA1 third AT-hook (DBD3) peptide (UniProt P17096 81-89)
T1 chain: RKPRGRPKK
Assay: X-ray crystallography; crystals: 5 mM MgCl2, 0.25 mM NiCl2, MPD up to 48%; 1:2 duplex:peptide; 2.27 A; only one of two AATT sites occupied; Crystallization by vapor diffusion: 25 mM Tris-HCl pH 7.5, 25 mM ammonium acetate, 5 mM MgCl2, 0.25 mM NiCl2, 5% MPD (raised to 48%), 0.2 mM DNA, 0.4 mM peptide, 4 C
Conditions: blunt; self-complementary, 2 copies of the strand

B1: d(CGAATTAATTCG)2 (dsDNA)
DNA 1: CGAATTAATTCG
DNA 2: CGAATTAATTCG
B1: binds.
